Measurements: article PMC12469269 (2025)

Experiments:
Experiment in all cases: SPR
[1] = target: T1, Recombinant Human GRP75/HSPA9B/Mortalin His Protein (human, UniProt P38646 47-679)
[2] = target: T2, Recombinant Human Vimentin Protein, CF (human, UniProt P08670 1-466)
[3] = target: T1, Recombinant Human GRP75/HSPA9B/Mortalin …; remark: listed apart in the source
[4] = target: T2, Recombinant Human Vimentin Protein, CF; remark: listed apart in the source
Mortalin peptide #56 = Mortalin peptide #56 (UniProt P38646)
Mortalin peptide #62 = Mortalin peptide #62 (UniProt P38646)

T1 sequence (P38646 47-679): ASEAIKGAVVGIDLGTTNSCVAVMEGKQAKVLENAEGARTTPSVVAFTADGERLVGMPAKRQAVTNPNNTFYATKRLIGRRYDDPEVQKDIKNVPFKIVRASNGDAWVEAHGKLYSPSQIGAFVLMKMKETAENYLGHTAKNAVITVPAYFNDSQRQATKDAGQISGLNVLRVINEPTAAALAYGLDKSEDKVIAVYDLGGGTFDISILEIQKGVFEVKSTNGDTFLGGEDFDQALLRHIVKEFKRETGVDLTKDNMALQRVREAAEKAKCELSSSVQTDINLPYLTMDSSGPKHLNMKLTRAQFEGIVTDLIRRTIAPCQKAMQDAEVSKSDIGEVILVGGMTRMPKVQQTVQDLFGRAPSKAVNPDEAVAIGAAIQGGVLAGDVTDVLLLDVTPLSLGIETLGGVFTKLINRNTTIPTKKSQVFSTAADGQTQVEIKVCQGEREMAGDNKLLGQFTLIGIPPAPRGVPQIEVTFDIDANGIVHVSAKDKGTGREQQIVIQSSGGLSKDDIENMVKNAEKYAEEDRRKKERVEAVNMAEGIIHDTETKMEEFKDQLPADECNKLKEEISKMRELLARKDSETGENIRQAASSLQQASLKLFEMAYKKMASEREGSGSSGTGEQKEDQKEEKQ
T2 sequence (P08670 whole entry): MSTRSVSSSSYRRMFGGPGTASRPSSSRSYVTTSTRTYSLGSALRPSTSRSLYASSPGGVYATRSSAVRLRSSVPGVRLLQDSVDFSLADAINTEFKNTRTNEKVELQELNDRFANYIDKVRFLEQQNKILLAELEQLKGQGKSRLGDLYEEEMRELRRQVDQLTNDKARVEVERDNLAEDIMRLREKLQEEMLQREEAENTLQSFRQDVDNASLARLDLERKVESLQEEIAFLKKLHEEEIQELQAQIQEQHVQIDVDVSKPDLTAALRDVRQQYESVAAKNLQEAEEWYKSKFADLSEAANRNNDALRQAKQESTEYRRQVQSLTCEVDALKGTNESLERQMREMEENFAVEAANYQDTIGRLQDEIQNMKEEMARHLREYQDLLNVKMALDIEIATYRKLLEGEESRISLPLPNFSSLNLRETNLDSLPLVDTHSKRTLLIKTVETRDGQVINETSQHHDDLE

Binder	koff [1] [s⁻¹]	koff [2] [s⁻¹]	Kd [3] [µM]	Kd [4] [µM]	Kd (Mortalin peptide #56) [µM]	koff (Mortalin peptide #56) [s⁻¹]	Kd (Mortalin peptide #62) [µM]	koff (Mortalin peptide #62) [s⁻¹]
VGFPV [SMRwt peptide]	0.0152	0.0566	22.6	8.8	–	–	–	–
HIV-1 Nef protein (natural protein) MGGKWSKSSVVGWPTVRERMRRAEPAADGVGAASRDLEKHGAITSSNTAATNAACAWLEAQEEEEVGFPVTPQVPLRPMTYKAAVDLSHFLKEKGGLEGLIHSQRRQDILDLWIYHTQGYFPDWQNYTPGPGVRYPLTFGWCYKLVPVEPDKVEEANKGENTSLLHPVSLHGMDDPEREVLEWRFDSRLAFHHVARELHPEYFKNC	0.0226	0.000901	–	–	76.9	0.0285	1.9	0.0037
